What is called Kd is the concentration at which binding is half-saturated.

In test [1] the target is 4xSUMO2ΔN11 (tetra-SUMO2). In words: ITC binding to linear tetra-SUMO2 (4xSUMO2ΔN11). As to conditions: 50 mM Tris/HCl pH 7.5, 150 mM NaCl, 2 mM DTT, 5% glycerol, 25°C, averaged from two to six titrations, read-out: Dissociation constant (KD), 4xSUMO2ΔN11 (tetra-SUMO2). The text has this: (§1) For expression in Escherichia coli, linear poly-SUMO chains were generated as described previously with slight modifications. After the combined PCR/ligation reaction, the 4×SUMO2-ΔN11 or 4×SUMO1-ΔN15 DNA polymers were separated from smaller polymers by agarose gel electrophoresis and individually extracted (Macherey–Nagel). These were then subjected to a second PCR with primers to create BamHI and XhoI restriction sites, a C-terminal GG motif and a stop codon. The resulting fragments coding for di-, tri- and tetra-SUMO2-ΔN11 or SUMO1-ΔN15 chains were amplified and cloned into pGEX-4T2. […] Each monomer in these chains is separated by RS replacing the natural GG motif. A similar strategy was used to design C-terminally GFP–HA2-tagged linear poly-SUMOs in the copper-inducible Ycplac22 vector for expression in S. cerevisiae. […]
(§2) The mono-SUMOs and linear poly-SUMO1 and poly-SUMO2 proteins as well as all RNF4 constructs were expressed as GST-fusion proteins from E. coli Rosetta™ 2(DE3)pLysS cells (Novagen) cultivated in LB medium with 100 μg/ml ampicillin and 30 μg/ml chloramphenicol after induction with 0.1 mM IPTG at 20°C for 12 h. […]
(§3) Binding of peptides and proteins to SUMOs was investigated by ITC using either a VP-ITC or an ITC200 (GE Healthcare). […] Protein concentrations were determined by measuring the absorption at 280 nm. […]

The next test concerns the target 3xSUMO2ΔN11 (tri-SUMO2). Put plainly: ITC binding to linear tri-SUMO2 (3xSUMO2ΔN11).
Excerpt: as §1, §2, §3

The subject of test [2] is mono-SUMOs and SUMO chains. In words: ITC binding to mono-SUMOs and SUMO chains (general statements). Conditions: mono-SUMO1 and mono-SUMO2.
Excerpt: as §1, §2, §3

The target of a further test is 2xSUMO1ΔN15 (di-SUMO1). In words: ITC binding to linear di-SUMO1 (2xSUMO1ΔN15). As to conditions: 50 mM Tris/HCl pH 7.5, 150 mM NaCl, 2 mM DTT, 5% glycerol, 25°C, averaged from two to six titrations, read-out: Dissociation constant (KD), 2xSUMO1ΔN15 (linear di-SUMO1).
Excerpt: as §1, §2, §3

Test [3] concerns the target 4xSUMO1ΔN15 (tetra-SUMO1). Put plainly: ITC binding to linear tetra-SUMO1 (4xSUMO1ΔN15). Conditions: 50 mM Tris/HCl pH 7.5, 150 mM NaCl, 2 mM DTT, 5% glycerol, 25°C, averaged from two to six titrations, read-out: Dissociation constant (KD), 4xSUMO1ΔN15 (tetra-SUMO1).
Excerpt: as §1, §2, §3

A further test deals with T1, 2xSUMO2ΔN11 (di-SUMO2) (Homo sapiens, UniProt P61956).
T1 construct: Each monomer in these chains is separated by RS replacing the natural GG motif; a C-terminal GG motif and a stop codon; GST (N, cleaved yes); made in house; host or cells: E. coli Rosetta 2(DE3)pLysS
In words: ITC binding to linear di-SUMO2 (2xSUMO2ΔN11). Conditions: 50 mM Tris/HCl pH 7.5, 150 mM NaCl, 2 mM DTT, 5% glycerol, 25°C, averaged from two to six titrations, read-out: Dissociation constant (KD), 2xSUMO2ΔN11 (linear di-SUMO2).
Excerpt: as §1, §2, §3

Test [4] deals with native 2xSUMO2 ('native' Lys^11-linked di-SUMO2 chains). Put plainly: ITC binding to native Lys^11-linked di-SUMO2. Conditions: 50 mM Tris/HCl pH 7.5, 150 mM NaCl, 2 mM DTT, 5% glycerol, 25°C, averaged from two to six titrations, chains produced by in vitro SUMOylation, read-out: Dissociation constant (KD), native Lys^11-linked di-SUMO2. How it is done:
The mono-SUMOs and linear poly-SUMO1 and poly-SUMO2 proteins as well as all RNF4 constructs were expressed as GST-fusion proteins from E. coli Rosetta™ 2(DE3)pLysS cells (Novagen) cultivated in LB medium with 100 μg/ml ampicillin and 30 μg/ml chloramphenicol after induction with 0.1 mM IPTG at 20°C for 12 h. Cells were lysed by sonication in GST-buffer I (50 mM Tris/HCl, pH 7.5, 150 mM NaCl and 2 mM DTT) in the presence of protease inhibitors (1 μg/ml aprotinin, 1 μg/ml leupeptin, 1 μg/ml pepstatin, 200 μM pefabloc and 100 μM PMSF). For tetra-SUMOs and RNF4 variants, 1.5% sarkosyl, 0.1% Triton X-100 and 5% glycerol were added. The proteins were affinity purified using glutathione beads (Protino® Glutathione Agarose 4B, Macherey–Nagel) and eluted by thrombin cleavage. The supernatant was subjected to anion exchange chromatography and further purified by SEC (size-exclusion chromatography) into ITC buffer (50 mM Tris/HCl, pH 7.5, 150 mM NaCl, 2 mM DTT and 5% glycerol) or in crystallization buffer (20 mM Tris/HCl, pH 7.5, and 100 mM NaCl). Native SUMO2 chains were produced by in vitro SUMOylation as described recently and subsequently purified by affinity chromatography and SEC.
as §3

T1 sequence (P61956 with tags, fused parts or gaps): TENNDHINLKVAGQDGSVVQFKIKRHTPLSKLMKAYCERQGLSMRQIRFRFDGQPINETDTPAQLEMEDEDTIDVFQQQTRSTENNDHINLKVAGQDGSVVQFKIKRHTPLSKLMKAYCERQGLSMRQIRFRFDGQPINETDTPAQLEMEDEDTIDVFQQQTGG

B1: SIM domain: construct comprising the entire N-terminal part of RNF4 upstream of the RING domain (N-terminal 1–125 amino acids) (protein)
chain: MSTRKRRGGAINSRQAQKRTREATSTPEISLEAEPIELVETAGDEIVDLTCESLEPVVVDLTHNDSVVIVDERRRPRRNARRLPQDHADSCVVSSDDEELSRDRDVYVTTHTPRNARDEGATGLR
modifications: left off: GST, end not stated, cleaved
As for B1, the Kd in test [1] is 1.6 µM; on 3xSUMO2ΔN11 (tri-SUMO2) (50 mM Tris/HCl pH 7.5, 150 mM NaCl, 2 mM DTT, 5% glycerol, 25°C, averaged from two to six titrations, read-out: Dissociation constant (KD), 3xSUMO2ΔN11 (tri-SUMO2)), 19 µM; at 2xSUMO1ΔN15 (di-SUMO1), 17 µM; in test [3], 4.3 µM; in the test with 2xSUMO2ΔN11 (di-SUMO2) it was 14 µM; in test [4], 11 µM. Besides, the “affinity for tri-SUMO compared with di-SUMO” value in the test with 3xSUMO2ΔN11 (tri-SUMO2) (tri-SUMO2) is listed as “did not result in an increase in affinity”. Moreover, the “affinity for mono-SUMOs” value in test [2] was “very weak”.
